Measured values taken from the RNAGym collection of RNA variant scans (doi:10.7554/elife.80360).

B1: HDV Ribozyme (parent)
chain: GGCCGGCAUGGUCCCAGCCUCCUCGCUGGCGCCGGCUGGGCAACAUUCCGAGGGGACCGUCCCCUCGGUAAUGGCGAAUGGGACCCA

Variants of: B1
Assay: self-cleavage, relative activity (ratio to wild type); higher = more cleavage; co-transcriptional

Row | Variant | self-cleavage
1 | A70G G80U | 0.177
2 | U20A C64G | 0.0639
3 | G34A U60A | 0.204
4 | G34A A83G | 0.0817
5 | G31U G67A | 0.369
6 | G5U A77U | 0.158
7 | C22A G80A | 0.0479
8 | U9G G50U | 1.15
9 | G25U C75G | 0.128
10 | C3U A78G | 0.446
11 | A51C C75U | 0.141
12 | C14U C22U | 0.935
13 | C4A G52C | 0.406
14 | A42U G73U | 0.378
15 | A42U A78U | 0.284
16 | C22G U69C | 0.0755
17 | G2C A51U | 0.0468
18 | G6A C24G | 0.108
19 | U23A A70U | 0.962
20 | U12G G59U | 0.973
21 | A51C U60A | 1.11
22 | C33A G59A | 0.343
23 | G35C U60A | 0.192
24 | C7G A87U | 0.284

Row | Variant | self-cleavage
25 | C62G A87C | 0.661
26 | G5U G80U | 0.0405
27 | C30G G59C | 0.108
28 | C30G G59U | 0.0744
29 | C21U G52U | 0.182
30 | G6C A16G | 0.151
31 | C13G U46G | 0.0554
32 | A42G A83G | 0.361
33 | G38A C64U | 0.225
34 | G25C G40C | 0.156
35 | A56U C61G | 0.997
36 | C13A A43U | 0.154
37 | U23G U79A | 0.322
38 | A70G C86G | 1.03
39 | A43G C84G | 0.201
40 | U47G G76U | 1.22
41 | U60G A83C | 0.612
42 | U60C U69C | 1.2
43 | C41U C84G | 0.589
44 | C62A A83C | 0.315
45 | G67C A71U | 0.716
46 | C61G A71G | 0.808
47 | G17C G67A | 0.249
48 | G1A U37G | 0.158

Row | Variant | self-cleavage
49 | U27A G55A | 1.08
50 | A43G U60C | 0.415
51 | G17A C63A | 0.611
52 | G6A C61U | 0.899
53 | C24U G39A | 0.257
54 | C58A C63G | 0.932
55 | G40A C86U | 0.989
56 | C26G G81U | 0.567
57 | U20C G68C | 0.192
58 | A16G U60C | 1.14
59 | G2U G74A | 0.0163
60 | G50A G80U | 0.233
61 | G52U G55C | 0.961
62 | C15G A78U | 0.375
63 | G11C C62G | 0.214
64 | G5A | 0.199
65 | A16C C21U | 0.199
66 | G2C A70C | 0.0248
67 | U72G G82U | 0
68 | G1C C36G | 0.0437
69 | G55U U72A | 0.648
70 | G54A A56G | 0.991
71 | C41A A78U | 0.354
72 | G31C A51G | 0.341

Row | Variant | self-cleavage
73 | U9C G54U | 0.937
74 | A56G G73A | 0.749
75 | G25U C61A | 0.287
76 | G10A C48U | 0.895
77 | U12A C63U | 0.453
78 | G76A U79G | 0.672
79 | U9G G29C | 0
80 | C18U U46A | 0.291
81 | C32U U47G | 1.03
82 | G6U G40A | 0.587
83 | G54C G74C | 0.198
84 | G1U U46A | 0.443
85 | C64G C84G | 0.76
86 | C3U C63G | 0.572
87 | G11C G31A | 0.0804
88 | G39U C48U | 0.594
89 | A45G U65G | 0.782
90 | A43C A77G | 0.317
91 | C21G C85A | 0.0504
92 | G34C G40C | 0.113
93 | C30G G80U | 0.0912
94 | C26A A51G | 1.11
95 | C19G C64A | 0.0528
96 | A8U C22A | 0.0923

Row | Variant | self-cleavage
97 | A51C G81A | 0.323
98 | A8U U60A | 0.939
99 | G52U A56U | 0.787
100 | G6C C75U | 0.095
101 | G2U A78G | 0.089
102 | G53A C66U | 1.05
103 | G6A U79C | 0.128
104 | C21G U79G | 0.0554
105 | G34U A78C | 0.0369
106 | U9A A43U | 0.675
107 | G74C C84U | 0.196
108 | A71C U79C | 0.269
109 | C26G A70U | 0.875
110 | C19G U72A | 0.0563
111 | C21U A87U | 0.368
112 | U9G A77G | 0.767
113 | U60G U72C | 0.489
114 | G55U A56C | 0.944
115 | U9A G67C | 0.831
116 | C32A G59A | 0.373
117 | G38U A51C | 0.246
118 | C33A A42C | 0.146
119 | U9G G40U | 1.06
120 | G31C U60C | 0.525

Row | Variant | self-cleavage
121 | C61U C84G | 0.589
122 | C7G G10U | 0.0462
123 | C19A G81U | 0.133
124 | U46G C66G | 0.633
125 | C4G G54A | 0.288
126 | G53A G67A | 1.02
127 | G5C U27G | 0.302
128 | C15G C21U | 0.0405
129 | C21A C63G | 0.0978
130 | G59U A77G | 0.847
131 | A78U U79A | 0.095
132 | A16C A83G | 0.877
133 | C32A C49U | 0.0997
134 | G6C G35C | 0.0723
135 | C4G U12A | 0
136 | A56C C85A | 0.806
137 | A45U C84G | 0.332
138 | C4U C44A | 0.578
139 | C21G A51C | 0
140 | C18U G54C | 0.606
141 | C18U G81A | 0.265
142 | U20A C75G | 0.0791
143 | G59C C62A | 0.87
144 | C32U U79A | 0.653

Row | Variant | self-cleavage
145 | A45U C57G | 0.831
146 | C26U A78C | 0.35
147 | G5A G74C | 0.0923
148 | C66U | 1.01
149 | C44U C86G | 0.928
150 | U60A A83G | 1.04
151 | A8U A71C | 0.703
152 | G34U C62U | 0.229
153 | C26U U60G | 0.831
154 | G1C U37A | 0
155 | G5U C18A | 0.0875
156 | C21A G34U | 0.0647
157 | C24G C66A | 0.0723
158 | C3A G73C | 0.0755
159 | C49U C61U | 0.851
160 | C48A | 0.989
161 | U9G U37G | 0.111
162 | G54U | 0.98
163 | G11U U12G | 0.199
164 | C19A G25A | 0.138
165 | C22G G80C | 0.136
166 | U72C G74C | 0.26
167 | G5C U46C | 0.26
